We go through one molecule from publication PMC3089482 (Nucleic Acids Research, 2011).

The target in this assay is T1, Archaeoglobus fulgidus PCNA (Archaeoglobus fulgidus, UniProt O29912).
T1 sequence: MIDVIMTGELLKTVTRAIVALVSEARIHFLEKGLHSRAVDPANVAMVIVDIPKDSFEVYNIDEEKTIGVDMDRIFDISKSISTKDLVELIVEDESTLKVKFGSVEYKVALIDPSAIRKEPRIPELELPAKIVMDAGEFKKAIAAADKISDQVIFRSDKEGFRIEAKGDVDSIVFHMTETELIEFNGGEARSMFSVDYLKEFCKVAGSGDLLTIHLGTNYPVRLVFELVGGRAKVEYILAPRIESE
Put plainly: pull-down.

B1: GST-RNase HII hinge deletion mutant (ΔSNLR) (enzyme)
chain: MKAGIDEAGKGCVIGPLVVAGVACSDEDRLRKLGVKDSKKLSQGRREELAEEIRKICRTEVLKVSPENLDERMAAKTINEILKECYAEIILRLKPEIAYVDSPDVIPERLSRELEEITGLRVVAEHKADEKYPLVAAASIIAKVEREREIERLKEKFGDFGSGYASDPRTREVLKEWIASGRIPSCVRMRWKTVQKTLDDF
Regarding B1, the binding result is “binds”.
